According to publication PMC5771497:

Columns and labels:
[1] = biological target: T1, PRC2 5-mer (EZH2-EED-SUZ12-RBBP4-AEBP2) (Homo sapiens, UniProt Q15910-2;O75530;Q15022;Q09028;Q6ZN18 1-751;1-441;1-739;1-425;1-517); assay: EMSA
[2] = biological target: T1, PRC2 5-mer (EZH2-EED-SUZ12-RBBP4-AEBP2); assay: fluorescence polarization
[3] = biological target: T1, PRC2 5-mer (EZH2-EED-SUZ12-RBBP4-AEBP2); assay: competition
[4] = biological target: T1, PRC2 5-mer (EZH2-EED-SUZ12-RBBP4-AEBP2); assay: competition; remark: listed apart in the source

B1: (mCpG)24 dsDNA (dsDNA)
DNA 1: CGCGCGCGCGCGCGCGCGCGCGCGCGCGCGCGCGCGCGCGCGCGCGCG
DNA 2: B1 DNA 1
modifications: 5-methyl-C at CpG
With B1 the Kd [1] was 11.3 ± 6.2 nM.

B2: (CG)30 dsDNA (dsDNA)
DNA 1: CGCGCGCGCGCGCGCGCGCGCGCGCGCGCGCGCGCGCGCGCGCGCGCGCGCGCGCGCGCG
DNA 2: B2 DNA 1
B2: binds [2].

B3: (GGAA)10 RNA (structured_RNA)
RNA: GGAAGGAAGGAAGGAAGGAAGGAAGGAAGGAAGGAAGGAA
B3: binds [3].

B4: Poly(A)40 RNA (ssRNA)
RNA: AAAAAAAAAAAAAAAAAAAAAAAAAAAAAAAAAAAAAAAA
B4: no binding [4].
